Results as given in article PMC2133028.
No end group written: not given here.

Target: GST-hCASK PDZ fusion protein (residues 489-572) (human)
Assay: pull-down

IC50: 40 to 70 µM
Binder: APTKEFYA-OH [COOH-terminal syndecan-2 peptide (APTKEFYA-COOH)]
